Experimental data reported in patent US8466270B2, “Methods for using artificial polynucleotides and compositions thereof to reduce transgene silencing” (Monsanto Technology LLC, priority 2002, dated 2013).

Legend:
[1] = system: CP4EPSPS polynucleotide; assay: PCR detection of artificial CP4EPSPS polynucleotides in transgenic plants; parameters: species or system corn; settings: amplicon size obtained with the primer pair specific for the gene; second figure in brackets
Source text: A DNA detection method (polymerase chain reaction, PCR) is designed to detect the artificial CP4EPSPS polynucleotides in transgenic plants. The unique sets of DNA primers shown in Table 26 are designed to amplify a specific CP4EPSPS polynucleotide and to provide distinctly sized amplicons. The amplicons differ sufficiently in polynucleotide length among the various CP4EPSPS polynucleotides to make easy separation of the amplicons by standard agarose gel electrophoresis. The presence of more than one of the artificial polynucleotides can be detected in a plant by using a multiplex PCR method.
DNA primer pairs (Table 26) are used to produce an amplicon diagnostic for a specified CP4EPSPS polynucleotide contained in a transgenic plant. These primer pairs include, but are not limited to SEQ ID NO:24 and SEQ ID NO:25 for the CP4EPSPS_AT polynucleotide; SEQ ID NO:26 and SEQ ID NO:27 for the CP4EPSPS_ZM; SEQ ID NO:28 and SEQ ID NO:29 for CP4EPSPS_Nat and SEQ ID NO:30 and SEQ ID NO:31 CP4EPSPS_Syn polynucleotide molecule. In addition to these primer pairs, any primer pair derived from SEQ ID NO:17 or SEQ ID NO:18 that when used in a DNA amplification reaction produces a DNA amplicon diagnostic for the respective CP4EPSPS polynucleotide is an aspect of the present invention. […]

[2] = system: transgenic cotton plants; assay: CP4EPSPS ELISA, enzyme level in R0 cotton lines; type: in vivo; settings: relative to pMON20999 expression cassette
Procedure: (§1) Three plasmid constructs are evaluated in transgenic cotton plants (Table 21). The control construct (pMON20999) contains P-FMV/CP4EPSPS_Syn this expression cassette is contained in the commercially available glyphosate tolerant cotton line 1445 (Roundup Ready® cotton, Monsanto Co., St. Louis, Mo.). The plasmid constructs, pMON59313 and pMON59396 containing the CP4EPSPS_AT and CP4EPSPS_ZM polynucleotides, respectively, are assayed for transformation efficiency and CP4EPSPS enzyme levels relative to the commercial glyphosate tolerant expression cassette. About fifty transgenic cotton lines are evaluated for each construct.

[3] = system: transgenic cotton plants; assay: Cotton transformation (transformation efficiency, insert number); type: cell-based; settings: relative to pMON20999
Procedure: as §1

[4] = system: Wheat plants; assay: CP4EPSPS enzyme expression in wheat leaves by ELISA; type: in vivo
Source text: Wheat plants transformed with the new CP4EPSPS polynucleotides are compared for transformation efficiency and CP4EPSPS enzyme expression determined by ELISA (Table 25). […] The average expression of CP4EPSPS in leaves from wheat plants containing the CP4EPSPS_ZM polynucleotide is about 64% of that found in glyphosate resistant wheat that contains a double cassette construct, pMON30139: P-e35S/1-Hsp70/CP4EPSPS_Nat and P-OsAct1/I-OsAct1/CP4EPSPS_Nat (WO/0022704).

[5] = system: transgenic soybean plants; assay: CP4EPSPS enzyme level in transgenic soybean plants; type: in vivo
Procedure: Constructs containing the artificial CP4EPSPS polynucleotides, CP4EPSPS_AT and CP4EPSPS_ZM are evaluated in soybean (Table 22). The plasmid constructs all contain the P-FMV promoter to drive expression of the new CP4EPSPS polynucleotides and are compared to the P-FMV/CP4EPSPS_Syn contained in pMON20999. About 25 to 30 transgenic soybean plants are produced for each construct. The transformation efficiency and CP4EPSPS enzyme, levels are measured.

| Molecule | PCR product (bps) [1] | expression level of the CP4EPSPS enzyme (in words) [2] | percentage of plants with a single insert [3] | CP4EPSPS enzyme expression relative to CP4EPSPS_AT ([4]; wheat) | CP4 Exp. (%) CP4EPSPS expression ([4]; wheat leaves, relative to pMON30139 double cassette wheat, ELISA) | expression level of CP4EPSPS protein (in words) [5] |
| --- | --- | --- | --- | --- | --- | --- |
| CP4EPSPS_AT: Artificial polynucleotide encoding the CP4EPSPS protein using the Arabidopsis codon usage table (nucleic acid, listed as Agrobacterium tumefaciens) DNA: ATGCTTCATGGAGCTTCATCTAGGCCAGCTACTGCCAGGAAGTCTAGCGGGCTCAGTGGCACCGTGCGCATCCCTGGCGATAAAAGTATTTCACACAGGAGCTTCATGTTCGGAGGACTTGCTAGTGGAGAGACGAGAATCACTGGTTTGCTTGAGGGCGAAGATGTTATCAACACCGGTAAGGCGATGCAAGCAATGGGTGCCAGAATCCGAAAAGAGGGCGATACGTGGATCATCGACGGTGTTGGTAACGGAGGATTGCTCGCTCCCGAAGCGCCACTTGACTTTGGGAACGCAGCTACGGGGTGCCGTCTTACTATGGGACTGGTAGGCGTGTATGACTTTGACTCTACCTTCATCGGTGACGCGAGCCTCACTAAGAGACCAATGGGACGAGTGCTGAATCCCCTGAGGGAGATGGGTGTCCAGGTGAAATCTGAGGATGGTGATCGTCTTCCGGTTACTCTGCGAGGCCCCAAGACCCCCACGCCAATCACGTACAGGGTTCCGATGGCGTCAGCACAGGTCAAGTCAGCGGTACTCCTGGCGGGCCTCAACACACCTGGAATCACAACCGTGATTGAACCCATCATGACTAGAGACCACACGGAGAAGATGTTGCAGGGTTTCGGCGCTAATCTAACGGTCGAAACCGACGCCGACGGCGTGAGGACAATCCGCTTGGAGGGCAGAGGTAAACTGACTGGCCAAGTCATCGATGTGCCTGGAGATCCCTCGTCCACAGCGTTTCCCCTCGTAGCTGCGTTGCTCGTCCCTGGATCTGATGTGACGATCCTGAATGTCCTCATGAATCCAACTAGAACCGGCCTCATCCTCACATTGCAGGAGATGGGTGCTGACATCGAGGTTATCAATCCTAGGTTGGCAGGTGGAGAGGATGTGGCCGATCTGCGCGTGCGTTCTAGTACACTCAAAGGCGTGACCGTCCCTGAGGATCGCGCTCCATCCATGATCGACGAGTACCCCATTCTCGCCGTTGCTGCTGCGTTTGCCGAGGGCGCAACTGTAATGAACGGCCTTGAGGAGTTGAGGGTTAAGGAGAGTGACAGGCTGTCCGCGGTGGCGAATGGCCTGAAGCTAAACGGCGTGGACTGCGACGAAGGTGAAACGTCCCTTGTAGTCCGTGGTCGCCCAGACGGGAAGGGGTTGGGGAATGCTTCGGGAGCTGCTGTGGCGACGCACCTTGATCATAGAATCGCCATGTCATTTCTGGTGATGGGACTTGTCTCCGAGAATCCGGTGACCGTTGACGATGCTACCATGATCGCCACCTCCTTTCCTGAGTTCATGGACCTCATGGCAGGCTTGGGGGCCAAGATCGAGCTGTCTGATACTAAGGCCGCTTGA | 938 (940) bps | increase in expression level | higher percentage of plants with a single insert | – | – | – |
| CP4EPSPS_ZM: Artificial polynucleotide encoding the CP4EPSPS protein using the Zea mays codon usage table (nucleic acid, listed as Agrobacterium tumefaciens) DNA: ATGCTACACGGTGCAAGCAGCCGGCCGGCAACCGCTCGCAAATCTTCCGGCCTTTCGGGAACGGTCAGGATTCCGGGCGATAAGTCCATATCCCACCGGTCGTTCATGTTCGGCGGTCTTGCCAGCGGTGAGACGCGCATCACGGGCCTGCTTGAAGGTGAGGACGTGATCAATACCGGGAAGGCCATGCAGGCTATGGGAGCGCGTATCCGCAAGGAAGGTGACACATGGATCATTGACGGCGTTGGGAATGGCGGTCTGCTCGCCCCTGAGGCCCCTCTCGACTTCGGCAATGCGGCGACGGGCTGCAGGCTCACTATGGGACTGGTCGGGGTGTACGACTTCGATAGCACGTTCATCGGAGACGCCTCGCTCACAAAGCGCCCAATGGGCCGCGTTCTGAACCCGTTGCGCGAGATGGGCGTACAGGTCAAATCCGAGGATGGTGACCGTTTGCCCGTTACGCTGCGCGGGCCGAAGACGCCTACCCCGATTACCTACCGCGTGCCAATGGCATCCGCCCAGGTCAAGTCAGCCGTGCTCCTCGCCGGACTGAACACTCCGGGCATCACCACGGTGATCGAGCCCATCATGACCAGGGATCATACCGAAAAGATGCTTCAGGGGTTTGGCGCCAACCTGACGGTCGAGACGGACGCTGACGGCGTCAGGACCATCCGCCTTGAGGGCAGGGGTAAACTGACTGGCCAAGTCATCGATGTTCCGGGAGACCCGTCGTCCACGGCCTTCCCGTTGGTTGCGGCGCTGCTCGTGCCGGGGAGTGACGTGACCATCCTGAACGTCCTCATGAACCCGACCAGGACCGGCCTGATCCTCACGCTTCAGGAGATGGGAGCCGACATCGAGGTGATCAACCCGCGCCTGGCAGGCGGTGAAGACGTTGCGGATCTGCGCGTGCGCTCCTCTACCCTGAAGGGCGTGACGGTCCCGGAAGATCGCGCGCCGTCCATGATAGACGAGTATCCTATTCTGGCCGTCGCCGCTGCGTTCGCCGAAGGGGCCACGGTCATGAACGGTCTTGAGGAACTCCGCGTGAAGGAATCGGATCGCCTGTCGGCGGTGGCCAATGGCCTGAAGCTCAACGGTGTTGACTGCGACGAGGGTGAGACCTCACTCGTGGTCCGTGGCCGGCCTGATGGCAAGGGCCTCGGCAACGCCAGTGGAGCGGCCGTCGCCACGCACCTCGATCATCGCATCGCGATGTCCTTCTTGGTGATGGGTCTCGTCTCAGAGAACCCGGTGACCGTCGATGACGCCACGATGATAGCGACGAGCTTCCCAGAGTTCATGGATCTGATGGCGGGCCTCGGGGCCAAGATCGAACTGTCTGACACGAAGGCCGCTTGA | 595 (600) bps | – | – | at least seven times higher | about 64% | surprisingly high expression level |
